According to patent US9657062B2, “Ghrelin analogues” (Zealand Pharma A/S, priority 2012, dated 2017):
*1 amine or outer side, *2 acyl side, *3 side chain or, on linkers, in order; H or OH if unused. [ ]: non-standard residue; d: D form. The star is where a group is joined. Achc(cis-1,4) = O=C([C@H]1CC[C@@H](N[*:1])CC1)[*:2]; Achc(trans-4) = O=C([C@H]1CC[C@H](N[*:1])CC1)[*:2]; Palmitoyl = CCCCCCCCCCCCCCCC(=O)*; 3Amb = NCc1cccc(C(=O)O)c1; Octanoyl = CCCCCCCC(=O)*; Aib = CC(C)(N)C(=O)O; Inp = O=C(O)C1CCNCC1; Octyl = CCCCCCCC*

B1: H-Aib-S-S(O-octyl)-FLSPEHQRVQQRKESKKPPAKLQPR-OH (peptide)
peptide: H-[Aib]SS(Octyl)FLSPEHQRVQQRKESKKPPAKLQPR-OH
SMILES: CCCCCCCCOC[C@H](NC(=O)[C@H](CO)NC(=O)C(C)(C)N)C(=O)N[C@@H](Cc1ccccc1)C(=O)N[C@@H](CC(C)C)C(=O)N[C@@H](CO)C(=O)N1CCC[C@H]1C(=O)N[C@@H](CCC(=O)O)C(=O)N[C@@H](Cc1c[nH]cn1)C(=O)N[C@@H](CCC(N)=O)C(=O)N[C@@H](CCCNC(=N)N)C(=O)N[C@H](C(=O)N[C@@H](CCC(N)=O)C(=O)N[C@@H](CCC(N)=O)C(=O)N[C@@H](CCCNC(=N)N)C(=O)N[C@@H](CCCCN)C(=O)N[C@@H](CCC(=O)O)C(=O)N[C@@H](CO)C(=O)N[C@@H](CCCCN)C(=O)N[C@@H](CCCCN)C(=O)N1CCC[C@H]1C(=O)N1CCC[C@H]1C(=O)N[C@@H](C)C(=O)N[C@@H](CCCCN)C(=O)N[C@@H](CC(C)C)C(=O)N[C@@H](CCC(N)=O)C(=O)N1CCC[C@H]1C(=O)N[C@@H](CCCNC(=N)N)C(=O)O)C(C)C
B2: H-Aib-S-S(O-octyl)-FLSPEHQRVQQRKES-K(hexadecanoyl)-KPPAKLQPR-OH (peptide)
peptide: H-[Aib]SS(Octyl)FLSPEHQRVQQRKESK(Palmitoyl)KPPAKLQPR-OH
SMILES: CCCCCCCCCCCCCCCC(=O)NCCCC[C@H](NC(=O)[C@H](CO)NC(=O)[C@H](CCC(=O)O)NC(=O)[C@H](CCCCN)NC(=O)[C@H](CCCNC(=N)N)NC(=O)[C@H](CCC(N)=O)NC(=O)[C@H](CCC(N)=O)NC(=O)[C@@H](NC(=O)[C@H](CCCNC(=N)N)NC(=O)[C@H](CCC(N)=O)NC(=O)[C@H](Cc1c[nH]cn1)NC(=O)[C@H](CCC(=O)O)NC(=O)[C@@H]1CCCN1C(=O)[C@H](CO)NC(=O)[C@H](CC(C)C)NC(=O)[C@H](Cc1ccccc1)NC(=O)[C@H](COCCCCCCCC)NC(=O)[C@H](CO)NC(=O)C(C)(C)N)C(C)C)C(=O)N[C@@H](CCCCN)C(=O)N1CCC[C@H]1C(=O)N1CCC[C@H]1C(=O)N[C@@H](C)C(=O)N[C@@H](CCCCN)C(=O)N[C@@H](CC(C)C)C(=O)N[C@@H](CCC(N)=O)C(=O)N1CCC[C@H]1C(=O)N[C@@H](CCCNC(=N)N)C(=O)O
B3: H-Inp-S-S(O-octyl)-FLSPEHQRV-K(hexadecanoyl)-QRKESKKPPAKLQPR-OH (peptide)
peptide: H-[Inp]SS(Octyl)FLSPEHQRVK(Palmitoyl)QRKESKKPPAKLQPR-OH
SMILES: CCCCCCCCCCCCCCCC(=O)NCCCC[C@H](NC(=O)[C@@H](NC(=O)[C@H](CCCNC(=N)N)NC(=O)[C@H](CCC(N)=O)NC(=O)[C@H](Cc1c[nH]cn1)NC(=O)[C@H](CCC(=O)O)NC(=O)[C@@H]1CCCN1C(=O)[C@H](CO)NC(=O)[C@H](CC(C)C)NC(=O)[C@H](Cc1ccccc1)NC(=O)[C@H](COCCCCCCCC)NC(=O)[C@H](CO)NC(=O)C1CCNCC1)C(C)C)C(=O)N[C@@H](CCC(N)=O)C(=O)N[C@@H](CCCNC(=N)N)C(=O)N[C@@H](CCCCN)C(=O)N[C@@H](CCC(=O)O)C(=O)N[C@@H](CO)C(=O)N[C@@H](CCCCN)C(=O)N[C@@H](CCCCN)C(=O)N1CCC[C@H]1C(=O)N1CCC[C@H]1C(=O)N[C@@H](C)C(=O)N[C@@H](CCCCN)C(=O)N[C@@H](CC(C)C)C(=O)N[C@@H](CCC(N)=O)C(=O)N1CCC[C@H]1C(=O)N[C@@H](CCCNC(=N)N)C(=O)O
B4: H-Inp-S-S(O-octyl)-FLSPEHQRVQQRKES-K(hexadecanoyl)-KPPAKLQPR-OH (peptide)
peptide: H-[Inp]SS(Octyl)FLSPEHQRVQQRKESK(Palmitoyl)KPPAKLQPR-OH
SMILES: CCCCCCCCCCCCCCCC(=O)NCCCC[C@H](NC(=O)[C@H](CO)NC(=O)[C@H](CCC(=O)O)NC(=O)[C@H](CCCCN)NC(=O)[C@H](CCCNC(=N)N)NC(=O)[C@H](CCC(N)=O)NC(=O)[C@H](CCC(N)=O)NC(=O)[C@@H](NC(=O)[C@H](CCCNC(=N)N)NC(=O)[C@H](CCC(N)=O)NC(=O)[C@H](Cc1c[nH]cn1)NC(=O)[C@H](CCC(=O)O)NC(=O)[C@@H]1CCCN1C(=O)[C@H](CO)NC(=O)[C@H](CC(C)C)NC(=O)[C@H](Cc1ccccc1)NC(=O)[C@H](COCCCCCCCC)NC(=O)[C@H](CO)NC(=O)C1CCNCC1)C(C)C)C(=O)N[C@@H](CCCCN)C(=O)N1CCC[C@H]1C(=O)N1CCC[C@H]1C(=O)N[C@@H](C)C(=O)N[C@@H](CCCCN)C(=O)N[C@@H](CC(C)C)C(=O)N[C@@H](CCC(N)=O)C(=O)N1CCC[C@H]1C(=O)N[C@@H](CCCNC(=N)N)C(=O)O
B5: H-Mamb-S(O-octanoyl)-FLSPEHQRVQQRKESKKPPAKLQPR-OH (peptide)
peptide: H-[3Amb]S(Octanoyl)FLSPEHQRVQQRKESKKPPAKLQPR-OH
SMILES: CCCCCCCC(=O)OC[C@H](NC(=O)c1cccc(CN)c1)C(=O)N[C@@H](Cc1ccccc1)C(=O)N[C@@H](CC(C)C)C(=O)N[C@@H](CO)C(=O)N1CCC[C@H]1C(=O)N[C@@H](CCC(=O)O)C(=O)N[C@@H](Cc1c[nH]cn1)C(=O)N[C@@H](CCC(N)=O)C(=O)N[C@@H](CCCNC(=N)N)C(=O)N[C@H](C(=O)N[C@@H](CCC(N)=O)C(=O)N[C@@H](CCC(N)=O)C(=O)N[C@@H](CCCNC(=N)N)C(=O)N[C@@H](CCCCN)C(=O)N[C@@H](CCC(=O)O)C(=O)N[C@@H](CO)C(=O)N[C@@H](CCCCN)C(=O)N[C@@H](CCCCN)C(=O)N1CCC[C@H]1C(=O)N1CCC[C@H]1C(=O)N[C@@H](C)C(=O)N[C@@H](CCCCN)C(=O)N[C@@H](CC(C)C)C(=O)N[C@@H](CCC(N)=O)C(=O)N1CCC[C@H]1C(=O)N[C@@H](CCCNC(=N)N)C(=O)O)C(C)C
B6: H-[DPro]-S-S(O-octyl)-FLSPEHQRVQQRKES-K(hexadecanoyl)-KPPAKLQPR-OH (peptide)
peptide: XSSFLSPEHQRVQQRKESKKPPAKLQPR
modifications: DPro at position 1; Ser(O-octyl) at position 3; K(hexadecanoyl) at position 19; C-terminal -OH
B7: H-[tACC]-S(O-octanoyl)-FLSPEHQRVQQRKESKKPPAKLQPR-OH (peptide)
peptide: H-[Achc(trans-4)]S(Octanoyl)FLSPEHQRVQQRKESKKPPAKLQPR-OH
SMILES: CCCCCCCC(=O)OC[C@H](NC(=O)[C@H]1CC[C@H](N)CC1)C(=O)N[C@@H](Cc1ccccc1)C(=O)N[C@@H](CC(C)C)C(=O)N[C@@H](CO)C(=O)N1CCC[C@H]1C(=O)N[C@@H](CCC(=O)O)C(=O)N[C@@H](Cc1c[nH]cn1)C(=O)N[C@@H](CCC(N)=O)C(=O)N[C@@H](CCCNC(=N)N)C(=O)N[C@H](C(=O)N[C@@H](CCC(N)=O)C(=O)N[C@@H](CCC(N)=O)C(=O)N[C@@H](CCCNC(=N)N)C(=O)N[C@@H](CCCCN)C(=O)N[C@@H](CCC(=O)O)C(=O)N[C@@H](CO)C(=O)N[C@@H](CCCCN)C(=O)N[C@@H](CCCCN)C(=O)N1CCC[C@H]1C(=O)N1CCC[C@H]1C(=O)N[C@@H](C)C(=O)N[C@@H](CCCCN)C(=O)N[C@@H](CC(C)C)C(=O)N[C@@H](CCC(N)=O)C(=O)N1CCC[C@H]1C(=O)N[C@@H](CCCNC(=N)N)C(=O)O)C(C)C
B8: H-PS-S(O-octyl)-FLSPEHQRVQQRKES-K(hexadecanoyl)-KPPAKLQPR-OH (peptide)
peptide: H-PSS(Octyl)FLSPEHQRVQQRKESK(Palmitoyl)KPPAKLQPR-OH
SMILES: CCCCCCCCCCCCCCCC(=O)NCCCC[C@H](NC(=O)[C@H](CO)NC(=O)[C@H](CCC(=O)O)NC(=O)[C@H](CCCCN)NC(=O)[C@H](CCCNC(=N)N)NC(=O)[C@H](CCC(N)=O)NC(=O)[C@H](CCC(N)=O)NC(=O)[C@@H](NC(=O)[C@H](CCCNC(=N)N)NC(=O)[C@H](CCC(N)=O)NC(=O)[C@H](Cc1c[nH]cn1)NC(=O)[C@H](CCC(=O)O)NC(=O)[C@@H]1CCCN1C(=O)[C@H](CO)NC(=O)[C@H](CC(C)C)NC(=O)[C@H](Cc1ccccc1)NC(=O)[C@H](COCCCCCCCC)NC(=O)[C@H](CO)NC(=O)[C@@H]1CCCN1)C(C)C)C(=O)N[C@@H](CCCCN)C(=O)N1CCC[C@H]1C(=O)N1CCC[C@H]1C(=O)N[C@@H](C)C(=O)N[C@@H](CCCCN)C(=O)N[C@@H](CC(C)C)C(=O)N[C@@H](CCC(N)=O)C(=O)N1CCC[C@H]1C(=O)N[C@@H](CCCNC(=N)N)C(=O)O
B9: H-Inp-S-S(O-octyl)-FLSPEHQRVQQRKESKKPPAKL-K(hexadecanoyl)-PR-OH (peptide)
peptide: H-[Inp]SS(Octyl)FLSPEHQRVQQRKESKKPPAKLK(Palmitoyl)PR-OH
SMILES: CCCCCCCCCCCCCCCC(=O)NCCCC[C@H](NC(=O)[C@H](CC(C)C)NC(=O)[C@H](CCCCN)NC(=O)[C@H](C)NC(=O)[C@@H]1CCCN1C(=O)[C@@H]1CCCN1C(=O)[C@H](CCCCN)NC(=O)[C@H](CCCCN)NC(=O)[C@H](CO)NC(=O)[C@H](CCC(=O)O)NC(=O)[C@H](CCCCN)NC(=O)[C@H](CCCNC(=N)N)NC(=O)[C@H](CCC(N)=O)NC(=O)[C@H](CCC(N)=O)NC(=O)[C@@H](NC(=O)[C@H](CCCNC(=N)N)NC(=O)[C@H](CCC(N)=O)NC(=O)[C@H](Cc1c[nH]cn1)NC(=O)[C@H](CCC(=O)O)NC(=O)[C@@H]1CCCN1C(=O)[C@H](CO)NC(=O)[C@H](CC(C)C)NC(=O)[C@H](Cc1ccccc1)NC(=O)[C@H](COCCCCCCCC)NC(=O)[C@H](CO)NC(=O)C1CCNCC1)C(C)C)C(=O)N1CCC[C@H]1C(=O)N[C@@H](CCCNC(=N)N)C(=O)O
B10: H-[cACC]-S(O-octanoyl)-FLSPEHQRVQQRKESKKPPAKLQPR-OH (peptide)
peptide: H-[Achc(cis-1,4)]S(Octanoyl)FLSPEHQRVQQRKESKKPPAKLQPR-OH
SMILES: CCCCCCCC(=O)OC[C@H](NC(=O)[C@H]1CC[C@@H](N)CC1)C(=O)N[C@@H](Cc1ccccc1)C(=O)N[C@@H](CC(C)C)C(=O)N[C@@H](CO)C(=O)N1CCC[C@H]1C(=O)N[C@@H](CCC(=O)O)C(=O)N[C@@H](Cc1c[nH]cn1)C(=O)N[C@@H](CCC(N)=O)C(=O)N[C@@H](CCCNC(=N)N)C(=O)N[C@H](C(=O)N[C@@H](CCC(N)=O)C(=O)N[C@@H](CCC(N)=O)C(=O)N[C@@H](CCCNC(=N)N)C(=O)N[C@@H](CCCCN)C(=O)N[C@@H](CCC(=O)O)C(=O)N[C@@H](CO)C(=O)N[C@@H](CCCCN)C(=O)N[C@@H](CCCCN)C(=O)N1CCC[C@H]1C(=O)N1CCC[C@H]1C(=O)N[C@@H](C)C(=O)N[C@@H](CCCCN)C(=O)N[C@@H](CC(C)C)C(=O)N[C@@H](CCC(N)=O)C(=O)N1CCC[C@H]1C(=O)N[C@@H](CCCNC(=N)N)C(=O)O)C(C)C

Molecular target: human growth hormone secretagogue receptor type 1a (human, UniProt Q92847 1-366)
Sequence (Q92847 whole entry): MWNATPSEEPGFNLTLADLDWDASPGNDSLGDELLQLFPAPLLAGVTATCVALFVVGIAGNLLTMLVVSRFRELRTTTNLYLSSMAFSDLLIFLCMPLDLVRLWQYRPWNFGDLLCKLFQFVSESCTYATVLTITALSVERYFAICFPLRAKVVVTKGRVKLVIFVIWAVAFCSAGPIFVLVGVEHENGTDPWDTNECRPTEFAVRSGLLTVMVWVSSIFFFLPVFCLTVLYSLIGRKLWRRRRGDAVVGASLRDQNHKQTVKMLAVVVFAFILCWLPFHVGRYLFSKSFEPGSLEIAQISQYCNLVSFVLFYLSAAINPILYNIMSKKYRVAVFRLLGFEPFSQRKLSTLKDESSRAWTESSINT
Experiment: cell-based or functional assay

EC50 (nM); Ca2+ induction in HEK293 cells stably expressing the human ghrelin receptor [nM] | Binder
0.77 | XSSFLSPEHQRVQQRKESKKPPAKLQPR (DPro at position 1; Ser(O-octyl) at position 3; C-terminal -OH) [H-[DPro]-S-S(O-octyl)-FLSPEHQRVQQRKESKKPPAKLQPR-OH]
0.46 | B1
2.9 | B2
2.55 | B3
2.52 | B4
1.56 | B5
4.63 | B6
1.89 | B7
2.88 | B8
1.18 | B9
0.579 | H-PSS(Octyl)FLSPEHQRVQQRKESKKPPAKLQPR-OH [H-PS-S(O-octyl)-FLSPEHQRVQQRKESKKPPAKLQPR-OH]
0.379 | B10
